For 19 sequences, protein production results are on record in a protein production outcome set (Wang et al. 2014).

This series can be described thus: label from the status in PepcDB records.
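Note: failed if final PepcDB status was selected cloned or expressed and not failed if soluble or beyond.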

“MSVADVALSPIHRGSAFAVGGFGQSTTTHYSVKSVLVFLSVSGSTMPMLILESDSIAEVKLRIQTCNGFRVRRQKLVFSGRELARNASRVKDYGVTGGSVLHLVLKLYDPLLVTVITTCGKVFQFHVDRRRNVGYLKKRISKEGKGFPEVDDQEILFKGEKLDDNRIIDGICKDGNSVIHLLVKKSVEDTVKREEDTATGKDSLLEPLFLTPM”: the protein production result was “failed”. The same measure for “MSVAETEIPIPAATPSLTDACVHCGFCLSDCPSYRVLGRETDSPRGRVYLMDSLQQGRIELSDTVVEHFDTCLGCLACTSACPSGVQYDQLIEEMRQRIAQEHRRPWPEAIWRKLLFAFLPYPERLRPILRLGQLYQSSGLQNWLNRQPLLQKFPQLAAASALLPPLSPASFQDNWPTLLPALGDRRYRVGLLLGCVQRLFNPEVNAAAIRVLRANGCDVVIPPQQGCCGAVAHHQGEMQQAQDLARAVIRSFEAENLDAILVTASGCGHTLKHYGAILADDPEWCDRAQQLADRVQDVQEFLATVGLTTPLHPLQEQPLVVVYQDACHMLHGQKIRNQPRQLLQQIPGIELREPVDAQLCCGSAGIYNLLQPAIAAELGQQKARSLAETGAQMIASANIGCYVQIRHHLQAQSKDLPVLHPLQIIDRAMNFQNH”: “failed”; for “MSVDPMTYEAQFFGFTPQTCMLRIYIAFQDYLFEVMQAVEQVILKKLDGIPDCDISPVQIRKCTEKFLCFMKGHFDNLFSKMEQLFLQLILRIPSNILLPEDKCKETPYSEEDFQHLQKEIEQLQEKYKTELCTKQALLAELEEQKIVQAKLKQTLTFFDELHNVGRDHGTSDFRESLVSLVQNSRKLQNIRDNVEKESKRLKIS”: “failed”; for “MSVETAQRSEVGVAMARSWLLVPAVGSEVLAAAAASGADSLVIDLEDGLPFAAKDEGRARTAEWLARNAGWVRINDATTPHWQRDLDAIRGLPGVRGLMLSKTESPEQVRDTAEGIPGIPVVALVESAAAIVAADDIARTAPVSRLAFGIGDYCRDTGAGRTPMALAYARSRLVNASRAARIGAPIDGPTLSLDAEAVRDDTRLAREMGMTGKLTLATEQVPVINTALAPDSNDISWAETTIARLGADGSRVTHGGHPPQLARAHDILRRAAHFASRT”: “failed”.

Take “MSVFAKVVELGSFTAAARQLQMSVSSISQTVAKLEDELQVKLLNRSTRSLGLTEAGKIYYQGCRRMLFEAQDVHEQLYAFNNTPIGTLRIGCSSTMAQNVLARITAKMLKEYPGLSVNLVTGIPAPDLIADGLDVVIRVGALQDSSLFSRRLGSMPMVLCAAKSYLAQAGNPEKPADLAGHAWLEYSVRPDNEFVIIAPEGISTRLTPQGRFVTNDPMTLVRWLTAGVGIAYVPLMWAIEEINRGELEILLPSYQSDPRPVYALYTEKDKLPLKVQVCINYLTEYFVDVAKIYQGMHGRGIAR”: the protein production entry is “failed”. The same measure for “MSVFTTKVQSIGPEAELFKEEKMVILFGKDAPDALADYCYNIEVQPVTEAITDKQTLVIDEQTYQITAVGEVVLTNLDTLGHITIKFDGATTPELPGTLYVEEKAIPEITVGTTIT”: “failed”. Consider “MSVGRIHSFETCGTVDGPGIRFIVFLQGCLMRCMYCHNRDTWDTHDGKEVTVAELIEEAKSYRHFMKASGGGITCSGGEAMLQPEFVRDFFRAAQAEGIHTCLDTNGYIRKHTDVIDEVLEASDLVMLDLKQMKDDVHKEFIGVSNTRVLDFARYLHKIGQKTWIRYVIVPGYTDDEESAHLLGNFIKDMDNIEKIELLPYHKLGAHKWEALGHDYPLEGVNPPSKETMEKMVEILSQYHNNVKY”, for which the protein production result was “failed”. The same measure for “MSVKAGDVFKYERRFTEEEVFEFANITGDKGRHHVEYDENGRLMVHGLLTASIGTKVGEELHYIARELVSEFIRPVFTGDTITCELTLTNVEQMEGYKKVSIESVYRNQHEKTVLVGTSYGIIRGLEHHHHHH”: “not failed”. “MSVKIVHHKNFLGMIKELMKDAQSVLDIGCGVGATLKDFPCPIKIGVDAHGPYLEKARLATSFLPIKYEAQRIGEIFLAKSVDCVSMIDVIEHMEKGVGYEVLAQAERIAVKRVIVFTPRGFFKQKAEDHYGLGGESFQEHRSGWEIEDFTQRGYQVIVFNQFHDQSNLAFVESYGKDAKPMDALLAWKELR”: the protein production entry is given as “not failed”. The same measure for “MSVKKDWIAPLALLFVSFIWGATFVVVQNAMSFVGPFTFNGIRFLFAGIILLFVQMIFSKKTSKQDIKQSSLAGLTVGFFLCVGYVLQTFGLLYTTSSKAGFLTGLSIVMVPILSFIFLKQKATIFIVIGIAVATAGLYLLTAGDSFQLNIGDILVLGCAVAFAAHILVNGFFSKKISPLLLSTSQVLAVGMFSSICAFLFEDWEKLFSVALWTNASFLFALFLTSLFATSIAFFIQTSAQKHTSPTRVAIIFAMEPVFAALTGVLVANEQLSISAIIGCLCIFLGMVFVELPSKTKKEAQAA”: “failed”.

For the sequence “MSVKLRLPQSAYPIFDRIEEMAWARHYQQIVREEKETELADDLEKGLPQHLFESLCIDHLQRHGANKQAISHAFDDDVEFQERMAEHIRYMAETIAHHQVDIDLEDLEHHHHHH”, the protein production entry is on record as “not failed”. In the case of “MSVPLILTLLAGAATFIGAFLGVLGQKPSNRMLAFSLGFAAGIMLLISLMEMLPAALDTEGMSPVLGYGMFIIGLLGYFGLDRLLPHAHPQDLVQKRQQPLPGSIKRTAILLTLGISLHNFPEGIATFVTASSNLELGFGIALAVALHNIPEGLAVAGPVYAATGSKRTAIFWAGISGMAEILGGVLAWLILGSLVSPIVMAAIMAAVAGIMVALSVDELMPLAKEIDPNNNPSYGVLCGMSIMGLSLVILQTIGIG”, the protein production entry is “failed”.

As for “MSVPRPMEGRASGSARIYQAGGDQYIEEHVHHHAPGSAPLFGHPWTGPAEPREAAPDSVRMPLVGRAPRVLRDRTDLMERLRAAVAGPGSDIQVLHGMGGCGKTAVAQALFTEAVRDHGRVGLWVNASERVSLRAGMLAVAGDRGATAGELAAAAGGRRAAADLVWHYLDQSAQPWLLVLDNADDPAVLEEGSWLRPSPSGTVLVTTRHATSSLWRAPATSSHRLGVLPLEDATLVLRDLAPDAGTRESARKVARRLGCLPLALTLAGAHLAHQLLESWSMDEYDRKLTEESTALVDRGASATGGGQSRHLVGRTWQLSLDGLAERGLPEATALLRLLSCWAADPVPLSLLMPAAQGGVGLEHLDPPLAAPRVEPALRALLDHSLIEMVETDGHRCVKAHGVLLDSVAGSVPDAERALLAAAAGGLLRAALPPEGAASPRARSQVRLLAPHATGLLHRSHRHDLVTAESVRLAVRLARLVYEAGDWTAALALASTAAKTAAEHLGAEHPVTIEARSGQGTVLFRLGRYAEAADLLRPVQQEALRTLGPHDERTLDAAYELQRVLHRLGDLAHARTLLDTVLDGRRQALGEDHVATLKTRCELLELRLAQDEFDGYTAAAGELAGECERRLGPEHLVTVWARDALARGLLRSGRGAEAEELFRRVLAGQRAGYGDDHPLVYGVLIQLSRAQYAQGKRERAAESAREVAEGRAVILGEDHPETVAARAWYTEVLATPPAPDDLVG”, the protein production result is recorded as “failed”. The entry for “MSVPSPVNESLLSQRLAALGAARSWAPNVLPELEHFIRTADDYDLLRVNPIQYGGAVRMSEADAIELFVHAAKVGLFDMDWLLICAYCPQVAGSFRELDQVHPRFQCAFCNAINDVALDDYIQVAFTVSSGVRDIIFRHPERLSVEDFYLRYNFSKGFIAPHGMTHQQLVAALSRGFADIEAHEHRSFDFEVTAGRFEVLDLSHKLLLVFFADGEPAEPQETLVQLESGRFHVPDRPTAPKDMVLGDGQFSFRQTADLSPGKHTIRIENRTDDRGRFWFVQYPPGFAPHLVEYEPFLSGKRLLLTPSFRELYKAQLVDEGESIKVSDMTFLFTDLKKSTPLYESVGDVNAYFLVRQHFEILNRIIRERSGTIIKTIGDAVMAGFERPQDAVCAAIEMIEELSRFNQTASRPLGLKVGVHRGRAIAVNLNDRIDYFGQDVNIAARVQGLADVDEVCISATAMEAPGVGDIVNSRSVSRNYENLKGIGQKMEVHRMTIPPTQT” is “failed”; for “MSVRPVDAALEGLQTMRRRPLTALAWATFSLVMLPILGLLVKIGLGDEGRQVLAGRGSSADPRELLDLVMNLGGAMVLLVALALLLGAVLQAAIIRSVLEPTNDRFAYLRLGKEEIQLLIVSLITWATALLCTIIPSGVVVLGSSLLSGAAAAWFAFLGALSVIGFSLWVAVRLSLLGPHAFSHHHIDIRAAWIQTHGQFWRLLGMFVLTIAIWILVSLLGAAVAGVIGKWLTAAVNLGASGLAASNSWLILSLLANMLLAPVFLTLQTVILVAAPARAFAQLNQDEIDAGLHA” it is “failed”; for “MSVSPVQPDPSVIGGVPKAPFVLKPNLARLFNDRASRFEALAQGSHLAPYLNFLAGITRIQSELVSALPPPEPVPADRVERARANAMPPIDRAAMGGSPDCREVLQQFFEKAEALEKPAAAAEALAQVRTADEEMLTWMIGNVMADDLPVESLAHHLYVAAAMQIQAARLAAGLDGSRLVPIRVGVCPACGGRPVASMVIGFHGAEGARYASCSCCATMWNEVRVKCLACGSTKGIGYQAVETGDEEATVKAEVCDTCNSWMKILYQNKNPSLDVVADDVASLGLDLLMKDTEYKRAGFDPFLMGY” it is “not failed”. The entry for “MSVTRRELLKLAGAAGAMSLAPAIVRAQKLEKAKVQIAVGGKPLIYYLPLTIAEVKGFFKDEGLDVSIADFAGGSKALQAVVGGSADVVSGAFEHTLSLQAKGQFYRAFALQGRAPMIGVGVSKKNLPGYKGPADLKGRKIGVTAPGSSTNMVVNFFLAKHGLKASDVSFIGVGAGAGAVTALRSGQIDAISNTDPVVSMLETSGDIQIIVDTRTLKDTKEIFGGNMPAGCLYAPQAFVDANPNTAQALTNAIVRADKWIQKAGADEIAKAVPEGYLLGDPAVYKAAIGKSMEGLSPDGVIPEDGAATALKALAAFVPDFDAAKVDPAKAWTNEYTRRANEKYPNG” is “not failed”. The entry for “MSVVTESKTARKWAMPDTLVIIFFVAILTSIATWVVPVGMFDSQEVQYQVDGQTKTRKVVDPHSFRIVTNEAGEAQYHRVQFFTTGDERPGLMNFPFEGLTSGSKFGTAVGIIMFMLVIGGAFGIVMRTGTVDNGILALIRHTRGNEVLFIPVLFVLFSLGGAVFGMGKEAVAFAIIIAPLMVRLSYDSITTVLVTYIATQIGFASSWMNPFCVVVAQGIAGVPVLSGSGLRIVVWIVATLIGLVFTLVYASRVKKNPLLSRVHESDRYFREQQDEVVQRPFTFGDWLVLLVLTGVMIWVVWGVIVHAWFIPEIASQFFTMGVVIGLIGVIFRLNGMTVNVMASSFTEGARMMIAPALLVGFAKGILLLVGNGEAGEPSVLNTLLNSIAHGISGLNNAIAAWFMLLFQAVFNFFVTSGSGQAALTMPLLAPLGDLVGVNRQVTVLAFQFGDGFSHIIYPTSASLMATLGVCRVDFRNWLKVGASLLGLLFIMSSVVVIGAQMMGYH” is “failed”. In the case of “MSVWRRRAEGREPTQAQRLFRGLVREWLWVSLILLPLTAVLSLSHGLALNNLFYDNLRRFTPLPVDPRILLVTIDDYSLQQLGRWPWPRAIHGQLLDRLSAAEAKGVLFDVILSEPGSTVENDTRLAAALCRAGNVFLPVLRQGVARYGQDIEEIPPVPLLRNCARGLGHINAEADADGTVRSVYLREGPMLAPRAQLTWLLYQLTEAEPAFPHMPGPGEPRVAQGWLRSNPVRIPFISADAGFPSVPYVSVLRGEVPPELLRDRLILVGSTAPGLGDRYVTPQSGSQGTTPGVEIQANLLNGLLQHRSVVALGQWSGMLLSMALTAVLLGLLLWRPRHALWITLGCMGLGLAGSVLMLRLGYWWSPVASLLGMLLAYLIWNWRRLSVILAYFGWELARLDSEPKVLPERRRSQAPAGDVLQGQIVALEQALSRTRDTRRFIADGLEYLPVATLISDPDGKILLANRNAREVFAHSLVGEGLIAQLAALGYPGLTEPALYPRLEQLPAVEFRDVQQRSLRMELAPLLPVDSDTAIGWLLSLTDLSVERDAEQQRSVLLRFLSHDLRAPHSAILALLDVQRHQPATPRQVYGQIEQQVRRALALTEAFVQLAKAESEAYQFEPSMFAMLVLDAFDQATTLAQLKDIHLEHDLDDEAEGLVLADQSLLTRALFNLLENAIKYSPVESRVSVRVSCTPGWLRCEISDEGRGIDAADLPQLFGQYQRFASAKGIDGLGLGLSMVKAVVDRHQGRISCQSVVGRGSCFILELPLLEE”, the protein production entry was “failed”.
